The record followed here is publication PMC11754096.

The test deals with T-complex protein ring complex (TRiC), endogenous (human (endogenous in HEK293 cells)) (UniProt P17987). In words: cryo-EM structure; in situ cryo-electron tomography of FIB-milled HEK Flp-In T-Rex 293 cells, template matching, subtomogram averaging and classification; open TRiC; untreated cells and cells treated with 100 µM HHT for 2 h.

With prefoldin (PFD), endogenous (complex), the percent of all TRiC with a single PFD (HHT-treated cells) came out at 18%, the percent of all TRiC with a single PFD (untreated cells) was determined as 12%, the percent of all TRiC with two PFD (HHT-treated cells) is 2% and the percent of all TRiC with two PFD (untreated cells) stood at 1%.
